In patent US20040175375A1 (SEOUL NATIONAL UNIVERSITY INDUSTRY FOUNDATION, published 2004):
Blank lines part the entries; values can stand above or below the binder they belong to.

Columns and labels:
[1] = biological target: T1, B42-YRS (tyrosyl-tRNA synthetase) (UniProt P54577 1-528); assay: yeast two-hybrid (LexA system), blue colony on X-gal
T1 construct: Yeast two-hybrid prey; also called tyrosyl-YRS; pB42-YRS; not shown: B42 protein from pB42 vector (Invitrogen)
T1 sequence (looked up): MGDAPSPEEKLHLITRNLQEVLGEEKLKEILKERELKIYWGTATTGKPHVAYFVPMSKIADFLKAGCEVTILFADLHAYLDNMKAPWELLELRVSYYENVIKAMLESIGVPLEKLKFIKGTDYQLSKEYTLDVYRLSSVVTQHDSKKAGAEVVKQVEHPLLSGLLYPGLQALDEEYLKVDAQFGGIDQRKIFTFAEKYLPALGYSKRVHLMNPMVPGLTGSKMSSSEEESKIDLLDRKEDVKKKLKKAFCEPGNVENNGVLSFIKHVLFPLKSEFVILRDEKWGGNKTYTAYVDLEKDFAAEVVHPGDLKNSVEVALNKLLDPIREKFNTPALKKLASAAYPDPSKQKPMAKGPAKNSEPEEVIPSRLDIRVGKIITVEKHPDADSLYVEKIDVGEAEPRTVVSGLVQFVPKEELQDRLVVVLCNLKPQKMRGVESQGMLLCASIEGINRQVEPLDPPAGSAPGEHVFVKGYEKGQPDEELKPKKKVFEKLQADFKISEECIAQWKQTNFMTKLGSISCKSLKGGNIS
From the text: (§1) Using the recombinant plasmids constructed in the above, Saccaromyces cerevisiae EGY48 (Clontech laboratories Inc. Estojak et al. (1995)) having a lacZ plasmid (p8op-LacZ) as a probe gene was transformed according to the known methods (Golemis, E. A., et al., In Current Protocols in Molecular Biology, 1994).

B42-(p38/JTV-1) = biological target: T2, B42-(p38/JTV-1) (human, UniProt Q13155 1-312); assay: as above
T2 construct: Yeast two-hybrid prey; also called pB42-(p38/JTV-1); not shown: B42 protein from pB42 vector (Invitrogen)
T2 sequence: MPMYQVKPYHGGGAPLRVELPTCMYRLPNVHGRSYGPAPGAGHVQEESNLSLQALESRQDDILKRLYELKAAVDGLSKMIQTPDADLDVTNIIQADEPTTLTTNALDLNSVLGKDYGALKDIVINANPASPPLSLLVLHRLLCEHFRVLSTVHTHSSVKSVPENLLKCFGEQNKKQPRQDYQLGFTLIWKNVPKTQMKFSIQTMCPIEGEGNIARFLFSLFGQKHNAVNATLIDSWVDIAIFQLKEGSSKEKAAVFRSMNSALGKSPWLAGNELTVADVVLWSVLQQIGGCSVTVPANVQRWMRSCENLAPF
From the text: as §1

[2] = biological target: T3, B42-WRS (tryptophanyl-tRNA synthetase) (UniProt P23381 1-471); assay: as above
T3 construct: Yeast two-hybrid prey; also called tryptophanyl-WRS; pB42-WRS; not shown: B42 protein from pB42 vector (Invitrogen)
T3 sequence (looked up): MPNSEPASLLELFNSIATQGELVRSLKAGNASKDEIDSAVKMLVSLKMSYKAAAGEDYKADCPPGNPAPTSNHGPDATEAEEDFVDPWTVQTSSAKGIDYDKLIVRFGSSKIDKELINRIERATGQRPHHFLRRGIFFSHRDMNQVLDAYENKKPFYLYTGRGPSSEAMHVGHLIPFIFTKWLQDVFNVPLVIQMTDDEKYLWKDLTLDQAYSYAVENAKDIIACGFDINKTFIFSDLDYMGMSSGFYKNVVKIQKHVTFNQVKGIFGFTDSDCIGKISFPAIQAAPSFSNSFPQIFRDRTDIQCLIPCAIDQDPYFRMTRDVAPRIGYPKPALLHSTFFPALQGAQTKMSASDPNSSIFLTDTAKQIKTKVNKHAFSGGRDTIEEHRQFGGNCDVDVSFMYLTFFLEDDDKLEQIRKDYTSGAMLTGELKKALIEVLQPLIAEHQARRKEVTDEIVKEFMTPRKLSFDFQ
From the text: as §1

[3] = biological target: T4, B42-QRS (glutaminyl-tRNA synthetase) (UniProt P47897 1-775); assay: as above
T4 construct: Yeast two-hybrid prey; also called pB42-QRS; not shown: B42 protein from pB42 vector (Invitrogen)
T4 sequence (looked up): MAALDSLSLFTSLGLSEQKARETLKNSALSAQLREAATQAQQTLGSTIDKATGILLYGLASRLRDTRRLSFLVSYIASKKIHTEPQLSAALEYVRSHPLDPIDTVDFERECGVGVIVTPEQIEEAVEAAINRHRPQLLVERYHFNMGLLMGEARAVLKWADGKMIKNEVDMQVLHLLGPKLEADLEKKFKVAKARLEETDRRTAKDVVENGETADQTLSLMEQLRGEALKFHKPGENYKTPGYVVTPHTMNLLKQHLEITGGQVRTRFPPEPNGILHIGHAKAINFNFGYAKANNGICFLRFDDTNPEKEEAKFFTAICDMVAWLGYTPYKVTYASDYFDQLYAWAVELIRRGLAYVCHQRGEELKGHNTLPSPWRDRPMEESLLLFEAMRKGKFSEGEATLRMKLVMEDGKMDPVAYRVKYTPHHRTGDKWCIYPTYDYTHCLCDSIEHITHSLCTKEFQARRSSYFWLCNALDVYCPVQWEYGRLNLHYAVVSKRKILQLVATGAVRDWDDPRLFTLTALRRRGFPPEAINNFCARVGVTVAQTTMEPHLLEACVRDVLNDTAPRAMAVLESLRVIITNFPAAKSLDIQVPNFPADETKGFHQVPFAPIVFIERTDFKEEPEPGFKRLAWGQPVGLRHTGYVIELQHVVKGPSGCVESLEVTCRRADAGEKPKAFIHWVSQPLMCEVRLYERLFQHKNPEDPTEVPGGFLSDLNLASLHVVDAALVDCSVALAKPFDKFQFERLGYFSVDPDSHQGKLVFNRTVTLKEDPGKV
From the text: as §1

[4] = biological target: T5, PDK-1 (phosphoinositide-dependent kinase) (UniProt O15530 1-556, limits assumed); assay: anti PDK-1 immunoprecipitation from HCT116 cells treated with FasL or TNF, western blot with p38/JTV-1 antibody
T5 construct: Endogenous protein of the cell lysate
T5 sequence (looked up): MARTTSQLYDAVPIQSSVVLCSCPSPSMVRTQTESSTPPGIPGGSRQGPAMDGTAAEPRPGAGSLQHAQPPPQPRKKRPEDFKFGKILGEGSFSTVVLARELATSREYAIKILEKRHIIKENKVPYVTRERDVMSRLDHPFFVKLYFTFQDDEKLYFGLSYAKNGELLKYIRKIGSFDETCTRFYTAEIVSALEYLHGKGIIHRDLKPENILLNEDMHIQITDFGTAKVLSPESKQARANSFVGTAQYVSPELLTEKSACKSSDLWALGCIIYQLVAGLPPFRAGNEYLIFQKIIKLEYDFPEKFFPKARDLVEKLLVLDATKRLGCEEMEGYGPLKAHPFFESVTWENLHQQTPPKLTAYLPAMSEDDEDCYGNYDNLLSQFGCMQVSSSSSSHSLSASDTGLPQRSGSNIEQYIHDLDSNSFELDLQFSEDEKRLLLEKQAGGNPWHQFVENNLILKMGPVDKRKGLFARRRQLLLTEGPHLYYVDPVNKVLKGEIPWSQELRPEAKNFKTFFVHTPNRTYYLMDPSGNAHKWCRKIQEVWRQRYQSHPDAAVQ

[5] = biological target: T6, myc-(p38/JTV-1), amino acids 1-312 (full length)
T6 chain: T2 sequence

HA-FBP = biological target: T7, HA-FBP (human, UniProt Q96AE4 1-644); assay: co-immunoprecipitation with anti-myc from 293 cells, western blot
T7 construct: also called HA-tagged FBP; FBP expression plasmid product; not shown: HA tag from HA-tagged pcDNA3 (Invitrogen)
T7 sequence (looked up): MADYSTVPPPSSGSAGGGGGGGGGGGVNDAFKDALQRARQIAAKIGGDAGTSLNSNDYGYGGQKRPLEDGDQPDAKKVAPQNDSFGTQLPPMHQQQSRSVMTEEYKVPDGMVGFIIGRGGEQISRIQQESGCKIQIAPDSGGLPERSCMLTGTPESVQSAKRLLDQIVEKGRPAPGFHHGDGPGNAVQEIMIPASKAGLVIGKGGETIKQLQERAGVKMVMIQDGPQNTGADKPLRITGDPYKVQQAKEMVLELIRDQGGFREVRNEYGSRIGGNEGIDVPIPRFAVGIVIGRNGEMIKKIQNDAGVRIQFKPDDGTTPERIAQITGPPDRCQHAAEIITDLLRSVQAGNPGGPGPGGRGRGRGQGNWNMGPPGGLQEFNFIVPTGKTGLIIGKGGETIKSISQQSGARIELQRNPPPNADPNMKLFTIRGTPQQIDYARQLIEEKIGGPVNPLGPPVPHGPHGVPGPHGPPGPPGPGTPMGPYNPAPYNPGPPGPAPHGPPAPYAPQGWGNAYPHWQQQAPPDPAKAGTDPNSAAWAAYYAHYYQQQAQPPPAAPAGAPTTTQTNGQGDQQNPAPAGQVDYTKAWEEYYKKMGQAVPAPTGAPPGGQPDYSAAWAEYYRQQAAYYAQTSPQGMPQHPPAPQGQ
Procedure: The transfected cells were lysed with the RIPA buffer for 16 hours after the transfection. […] After a protein A-agarose bead had been added to the above reactant, the mixture was incubated further for 1 hour at 4° C. The bead was washed with lysis buffer four times. The precipitated proteins were analyzed by SDS-PAGE and then transferred onto nitrocellulose membranes.

- binding result [4]: binds
B2: myc-(p38/JTV-1), amino acids 1-312 (full length) (other)
chain: T2 sequence
notes: also called myc-tagged p38/JTV-1; p38/JTV-1 expression plasmid product; not shown: myc tag from myc-tagged pcDNA3 (Invitrogen)

- binding result (HA-FBP): no binding
B4: myc-tagged p38/JTV-1 deletion fragment, amino acids 162-312 (other)
chain: PENLLKCFGEQNKKQPRQDYQLGFTLIWKNVPKTQMKFSIQTMCPIEGEGNIARFLFSLFGQKHNAVNATLIDSWVDIAIFQLKEGSSKEKAAVFRSMNSALGKSPWLAGNELTVADVVLWSVLQQIGGCSVTVPANVQRWMRSCENLAPF
notes: not shown: myc tag from myc-tagged pcDNA3 (Invitrogen)

Second part, the binder before the results:

B1: LexA-(p38/JTV-1) (other)
chain: T2 sequence
notes: Yeast two-hybrid bait expressed in S. cerevisiae EGY48; also called fusion protein of p38/JTV-1 and LexA; pLexA-(p38/JTV-1); not shown: LexA protein encoded by pLex202 vector (Invitrogen)
- binding result [1]: no binding
- binding result (B42-(p38/JTV-1)): binds
- binding result [2]: no binding
- binding result [3]: no binding

B3: PDK-1 (phosphoinositide-dependent kinase) (protein)
chain: T5 sequence (looked up)
- expression level of the phosphorylated AKT (p-308 and p-473) [5]: when the expression level of p38/JTV-1 was increased, the expression level of the phosphorylated AKT (p-308 and p-473) was decreased
